The text below walks through data of FireProtDB (doi:10.1021/bi034520t).

For orientation: Tm means the temperature at the midpoint of the melting transition.

The conditions of the data set: Saccharolobus solfataricus (strain ATCC 35092 / DSM 1617 / JCM 11322 / P2), Thermal, CD, phosphate 10 mM, reversible: yes, whole UniProt chain shown.

B1: DNA-binding protein 7d wild type, P39476 (protein)
chain: MATVKFKYKGEEKEVDISKIKKVWRVGKMISFTYDEGGGKTGRGAVSEKDAPKELLQMLEKQKK
Turning to B1, the melting temperature (Tm) came out at 80 °C (pH 3); 95 °C (pH 4); 98.5 °C (pH 5); 99 °C (pH 6); 98 °C (pH 7); 97.5 °C (pH 8). In addition, the Tm (pH 9) was determined as 97 °C. Also, the “unfolding enthalpy (van 't Hoff)” value is, setting by setting: (pH 3) 50.2 kcal/mol; (pH 4) 57.4 kcal/mol; (pH 5) 62.1 kcal/mol; (pH 6) 64.5 kcal/mol; (pH 7) 64.5 kcal/mol; (pH 8) 62.1 kcal/mol. The “unfolding enthalpy (van 't Hoff)” value (pH 9) came out at 59.8 kcal/mol.
